{
  "source": "paper PMC9403797",
  "about": "“Back From the Dead: The Atypical Kinase Activity of a Pseudokinase Regulator of Cation Fluxes During Inducible Immunity” (Frontiers in Plant Science, 2022)",
  "target": "T1, MPK19 (Arabidopsis, UniProt Q9LUC3 1-598)",
  "T1 construct": "MPK19, MAPK family kinase, Arabidopsis; fusion protein spotted on the functional protein microarray; source: printed on protein microarrays (AtPMA-5000 and AtPMA-10000)",
  "T1 sequence (looked up)": "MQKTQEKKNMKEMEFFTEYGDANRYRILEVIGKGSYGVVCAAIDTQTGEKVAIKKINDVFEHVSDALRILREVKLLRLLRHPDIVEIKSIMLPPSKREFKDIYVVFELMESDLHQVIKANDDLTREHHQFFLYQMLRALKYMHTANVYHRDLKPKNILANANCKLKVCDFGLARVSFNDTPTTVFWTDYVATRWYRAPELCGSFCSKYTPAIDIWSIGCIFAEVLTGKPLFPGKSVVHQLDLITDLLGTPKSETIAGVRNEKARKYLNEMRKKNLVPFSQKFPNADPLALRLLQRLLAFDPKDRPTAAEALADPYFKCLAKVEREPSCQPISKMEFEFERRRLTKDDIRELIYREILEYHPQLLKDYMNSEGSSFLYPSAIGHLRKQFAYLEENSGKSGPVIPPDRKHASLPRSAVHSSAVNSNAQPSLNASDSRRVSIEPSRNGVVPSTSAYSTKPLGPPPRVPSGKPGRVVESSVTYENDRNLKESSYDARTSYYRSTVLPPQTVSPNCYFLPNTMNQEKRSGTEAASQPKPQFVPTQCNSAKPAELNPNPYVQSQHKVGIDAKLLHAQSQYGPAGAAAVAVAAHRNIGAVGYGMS",
  "assay": "peptide or protein array; functional protein microarrays (AtPMA-5000 and AtPMA-10000, about 15,000 Arabidopsis proteins) probed with 150 ul purified ILK1-V5 in solution for 1.5 h with 1% BSA, 5 mM MgCl2 and MnCl2; detected with Cy5-conjugated anti-V5 antibody; three probe arrays against two control arrays without probe; one-sided t-test, 5% significance, FDR",
  "conditions": "both partners purified",
  "data": [
    {"binder": "ILK1-V5 (integrin-linked kinase 1, Arabidopsis) (enzyme, UniProt F4IS56 1-479, looked up, ILK1, integrin-linked kinase 1, a pseudokinase of the Raf-like MAP3K family, Arabidopsis; also called purified ILK1-V5 protein; source: purified as described previously (Brauer et al., 2014, 2016); purity validated by mass spectrometry) MENITAQLKRGISRQFSTGSIRRTLSRQFTRQSSLDPRRTNMRFSFGRQSSLDPIRRSPDSSKSDDEPHMSVPENLDSTMQLLFMASKGDVRGIEELLDEGIDVNSIDLDGRTALHIAACEGHLGVVKALLSRRANIDARDRWGSTAAADAKYYGNLDVYNLLKARGAKVPKTRKTPMTVSNPREVPEYELNPLEVQVRKSDGISKGAYQVAKWNGTRVSVKILDKDSYSDPERINAFRHELTLLEKVRHPNVIQFVGAVTQNIPMMIVVEYNPKGDLSVYLQKKGRLSPSKALRFALDIARGMNYLHECKPDPIIHCDLKPKNILLDRGGQLKISGFGMIRLSKISQDKAKVANHKAHIDLSNYYIAPEVYKDEIFDLRVDAHSFGVILYEITEGVPVFHPRPPEEVARMMCLEGKRPVFKTKSRSYPPDIKELIEKCWHPEAGIRPTFSEIIIRLDKIVANCSKQGWWKDTFKFPWK", "values": [
      {"measurement": "binding result", "result": "binds"}
    ]}
  ]
}
